This passage reports protein stability index results from the supplement of paper PMC10567573.

This series is described as follows: protein stability index of a GFP-peptide fusion (GPS, HEK-293T) (PSI 1-6); higher = more stable.
Where [1] appears, read: treatment: DMSO, c terminus: a fixed tail appended.
Setting [2] is: treatment: MLN4924 1 uM, 8 h, c terminus: a fixed tail appended.

± gives the standard deviation.
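Also: 24-mer peptide tiles fused after GFP, lentivirally expressed, FACS-sorted into six equal bins by GFP/DsRed ratio, decoded by Illumina sequencing, PSI is the read-weighted mean bin number.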

Consider SWTAVTPQQTWASPAEVVDLTLDE [C18orf25], for which the protein stability index reads like this: under setting [1], 4.74 ± 0.21; under setting [2], 4.73 ± 0.2.
As to SGPPASYCAKLCEPQWFYEETESS [C8orf76], the protein stability index worked out at 4.02 ± 0.12 under setting [1] and 4.37 ± 0.19 under setting [2].
Taken in the same sequence, the figures for EDNLEDDDVEMKNGITQGDKLRAL [CDC14A] were 5.44 ± 0.26 and 5.38 ± 0.12.
In the same order, the values of PYKWVVEAANLLIPAVGSSLSEAL [MYBL2] are 2.88 ± 0.32 and 2.63 ± 0.67.
On to PRSTVRQKVASNHSPFSSESRALS [TBX5], for which the protein stability index was found to be 4.11 ± 0.25 under setting [1] and 4.15 ± 0.19 under setting [2].
Taken in the same sequence, the figures for VIMWDIGGRKGTAIELQGHNDRVQ [WDFY2] were 2.57 ± 0.64 and 2.45 ± 0.17.
Regarding ASCSKNCTNSPAIVRFSGQSRGVP [FBXO34], the protein stability index under setting [1] was determined as 3.68 ± 0.27 and the protein stability index under setting [2] came to 3.63 ± 0.25.
Taken in the same sequence, the figures for QGKADGLYPNPRERSSFYSCAGGR [CHIT1] were 3.64 ± 0.097 and 3.87 ± 0.31.
Taken in the same sequence, the figures for NVLHVARLPNRQLISCSEDGSVRI [WDR41] were 2.99 ± 0.17 and 3.12 ± 0.32.
In the same order, the values of ESIAHIGDVMFTGTADGRVVKLEN [APMAP] are 4.11 ± 0.17 and 4.38 ± 0.19.
AEVVKIRDSFSNQNTETKDTKSR [DLC1] came in with a protein stability index (treatment: DMSO, c terminus: native) of 2.89 ± 0.56 and a protein stability index (treatment: MLN4924 1 uM, 8 h, c terminus: native) of 3.47 ± 0.74.
Consider SSDKVRGIETLESVPIIGGFWETI [PHTF1], for which the protein stability index runs as follows: under setting [1], 2.56 ± 0.32; under setting [2], 2.65 ± 0.31.
In the same order, the values of GRNDLQQWIEVDARRLTRFTGVIT [CPXM2] are 2.43 ± 0.062 and 2.56 ± 0.12.
Taken in the same sequence, the figures for ELKTFRLKTRSWAGERSRRELCSR [CDC25B] were 3.07 ± 0.099 and 3.44 ± 0.56.
Taken in the same sequence, the figures for SFTTNEKAILEQNFRDLVRDLEKQ [TRIM29] were 3.97 ± 0.19 and 4.19 ± 0.2.
Regarding VELPCRISPGKNATGMEVGWYRPP [MOG], the protein stability index runs as follows: under setting [1], 2.33 ± 0.091; under setting [2], 2.32 ± 0.28.
In the same order, the values of ATFSGFKKEQRRLGIPKNPWLWSE [ETS2] are 2.28 ± 0.18 and 2.57 ± 0.52.
Taken in the same sequence, the figures for LYRNGKDQDGDQAPEYRGRTELLK [MOG] were 4.59 ± 0.14 and 4.68 ± 0.34.
Taken in the same sequence, the figures for IFSVTALDPDSKENAQIIYSLAED [PCDHGA10] were 3.1 ± 0.47 and 3.21 ± 0.19.
With LSQADFLVCTFSSQVCRVAYEIMQ [FUT8], the protein stability index is, setting by setting: under setting [1], 2.96 ± 0.39; under setting [2], 2.93 ± 0.58.
Taken in the same sequence, the figures for PGGPGAMTESLEASEFLEQSMSQT [RSPH3] were 5.27 ± 0.28 and 5.16 ± 0.17.
Taken in the same sequence, the figures for RIYRMIKLGLGIDEDEVAAEEPNA [HSP90AB1] were 2.95 ± 0.24 and 3.19 ± 0.38.
For the sequence EVLSKALSQRTITVGVYEAAKLLN [GADD45A], the protein stability index is 2.77 ± 0.45 under setting [1] and 2.56 ± 0.53 under setting [2].
In the same order, the values of TLSFIVDGQYLGVAFRGLKGKKLY [SPSB4] are 2.16 ± 0.41 and 2.31 ± 0.31.
Taken in the same sequence, the figures for PVFNAMFEHEMEESKKNRVEINDL [SPOPL] were 4.26 ± 0.32 and 4.69 ± 0.21.
Taken in the same sequence, the figures for SFGFPRTVKHIDAALSEENTGKTY [MMP1] were 4.13 ± 0.25 and 3.94 ± 0.16.
In turn, ISAHKPLLISSCDWMAAMFGGPFV [RHOBTB2] gave a protein stability index under setting [1] of 2.51 ± 0.57 and a protein stability index under setting [2] of 2.44 ± 0.2.
Taken in the same sequence, the figures for NVLLFKKQNPGKFCLLSCGILTFL [RETREG3] were 2.43 ± 0.69 and 2.89 ± 0.73.
Turning to DFGLAIEVQGDQQAWFGFAGTPGY [CAMK2B], the protein stability index under setting [1] worked out at 2.26 ± 0.35 and the protein stability index under setting [2] was found to be 2.15 ± 0.3.
In the same order, the values of QSGATISMPCSTDKENGENVGLES [SASS6] are 5.55 ± 0.22 and 5.43 ± 0.27.
Taken in the same sequence, the figures for QLGQRIYQYIQSRFYRSPEVLLGT [DYRK1B] were 2.23 ± 0.16 and 2.53 ± 0.44.
In the same order, the values of VPFDIFTEEVKFYQLGEEALLKFR [KCNA4] are 2.32 ± 0.36 and 2.54 ± 0.19.
Consider VLQDRAAKGSLGTQIGFADLMGVL [FEM1A], for which the protein stability index stood at 2.15 ± 0.31 under setting [1] and 2.22 ± 0.35 under setting [2].
In the same order, the values of TPKSGEPRVPEEAAQDRPMSPGDC [YJU2B] are 5.49 ± 0.24 and 5.42 ± 0.25.
In the same order, the values of ILHPELTVDSMIPAYATTRIRSQI [GDAP1] are 2.52 ± 0.2 and 2.55 ± 0.17.
As for FRCLFEAEITQIQSHISDMSVILS [KRT71], the protein stability index by setting is: under setting [1], 1.94 ± 0.14; under setting [2], 2.34 ± 0.37.
In the same order, the values of MGNSHCVPQAPRRLRASFSRKPSL [PLEKHN1] are 3.66 ± 0.096 and 3.69 ± 0.11.
On to FIPSSHNDRDFLTRIFTEDRFAQD [PPEF2], for which the protein stability index under setting [1] was determined as 2.58 ± 0.81 and the protein stability index under setting [2] came out at 3.05 ± 0.64.
In the same order, the values of INDEMQAKGIPQRAPPKRKRKRVK [PCMTD1] are 5.51 ± 0.23 and 5.36 ± 0.24.
Taken in the same sequence, the figures for KMDMSVLEISGIIMSRVNAYQQGV [PHTF1] were 2.5 ± 0.54 and 2.48 ± 0.49.
In the same order, the values of NVVVHDWLYYYAYKDFLWFFSKRF [SOAT1] are 2.18 ± 0.35 and 2.17 ± 0.44.
Take STKGSRSNLSTRDASILTEMPTQP [NETO1]: the protein stability index stood at 4.52 ± 0.27 under setting [1] and 4.71 ± 0.24 under setting [2].
In the same order, the values of GSQPNSGLALESSSGLQDVTGPDN [NFE2L1] are 5.45 ± 0.21 and 5.44 ± 0.3.
For the sequence SQDVSDCYLELFPAHLYFQAHGSE [PLEKHN1], the protein stability index was 2.49 ± 0.19 under setting [1] and 2.81 ± 0.4 under setting [2].
In the same order, the values of LTFMNEQGEYPPGTSTWQFNFKFN [CNOT7] are 2.21 ± 0.074 and 2.39 ± 0.3.
In the same order, the values of RDPAAGAAPFRFVARPVRFPREHQ [ZNF511] are 2.61 ± 0.72 and 3.23 ± 0.68.
In the same order, the values of RNRPSFDAILYYYQSGGRLKRPVN [KCNA4] are 2.08 ± 0.27 and 2.42 ± 0.5.
The sequence GRRCKKCTEGPIDLVFVIDGSKSL [MATN2] showed a protein stability index under setting [1] of 2.06 ± 0.35 and a protein stability index under setting [2] of 2.41 ± 0.44.
Taken in the same sequence, the figures for KSPTGLKLKNDTENHQPVSLSDLE [ZNF75A] were 5.3 ± 0.23 and 5.188 ± 0.043.
For MDSDMDYERPNVETIKCVVVGDNA [RHOBTB2], the protein stability index reads like this: under setting [1], 4.74 ± 0.21; under setting [2], 4.87 ± 0.22.
In the same order, the values of YGKDIVKACSLLDVAVHMPCLGHT [ZBED1] are 2.14 ± 0.3 and 2.29 ± 0.33.
In the same order, the values of ENRLSVFFSVIFMTVGILSNSLAI [PTGFR] are 3.14 ± 0.25 and 3.36 ± 0.17.
Turning to MADPWQECMDYAVTLARQAGEVVC [IMPA1], the protein stability index reads like this: under setting [1], 2.56 ± 0.44; under setting [2], 2.37 ± 0.21.
On to FADEKNILHIMVKVVKGHRPELPP [RIPK4], for which the protein stability index is, setting by setting: under setting [1], 2.3 ± 0.32; under setting [2], 2.36 ± 0.36.
As to MTQLSSTLARCAKDILGFAVMFFI [PKD2L1], the protein stability index came out at 2.39 ± 0.37 under setting [1] and 2.28 ± 0.42 under setting [2].
Taken in the same sequence, the figures for FKCNYCGKSFRQRPSLVIHLRIHT [ZNF449] were 3.15 ± 0.46 and 3.35 ± 0.24.
In the same order, the values of EPIPFWTFLSRILTGLNYEAPKYH [NSDHL] are 2.62 ± 0.23 and 2.76 ± 0.42.
Taken in the same sequence, the figures for VCTFTYLLVGAAVFDALESDHEMR [KCNK9] were 2.9 ± 0.7 and 2.85 ± 0.15.
For RGEALGLVGAQAPATEEQEAASSS [MAGEA3], the protein stability index reads like this: under setting [1], 5.61 ± 0.27; under setting [2], 5.62 ± 0.1.
In the same order, the values of QNVDVNVHPTKHEVHFLHEESILE [MLH1] are 4.72 ± 0.19 and 4.75 ± 0.056.
As to LRKGYLFMYNLVQFLGFSWIFVNL [HACD3], the protein stability index was 3.5 ± 0.29 under setting [1] and 3.22 ± 0.31 under setting [2].
Taken in the same sequence, the figures for RYLGRPPSPTSPPPPELMDVSLVG [DYRK1B] were 3.98 ± 0.26 and 4.07 ± 0.29.
On to CGRRGIKVWSLTGQVAEDRFPESH [TLE6], for which the protein stability index turned out to be 2.79 ± 0.27 under setting [1] and 3.11 ± 0.16 under setting [2].
Taken in the same sequence, the figures for DLVKKIRDFHRKILTLPEMMRMFS [TRIM15] were 2.45 ± 0.46 and 2.35 ± 0.19.
Taken in the same sequence, the figures for PVTQIGFEAPPLQGQAAAPASGSG [TRIM55] were 5.14 ± 0.42 and 5.22 ± 0.14.
Taken in the same sequence, the figures for VPIDIFSEEIRFYQLGEEAMEKFR [KCNA3] were 3.14 ± 0.28 and 3.23 ± 0.18.
In the case of MEAYLPKKNGLYLSLVLGNVNVTL [TMEM120A], the protein stability index is 3.28 ± 0.49 under setting [1] and 3.44 ± 0.35 under setting [2].
In the case of KSQLGFLNVTNYCHLAHELRLSCM [DCAF4], the protein stability index under setting [1] was found to be 3.04 ± 0.41 and the protein stability index under setting [2] was 2.57 ± 0.36.
In the case of DGASQDCPPLPAGVSFHIDSAELE [FBXO34], the protein stability index is 5.39 ± 0.14 under setting [1] and 5.4 ± 0.16 under setting [2].
In the same order, the values of GLSQGLVDREKGLSAEPGWQAKRE [CHGA] are 4.92 ± 0.29 and 4.84 ± 0.4.
With IREDEVHRLGSPYGHCTAGGEGVE [SCNN1D], the protein stability index amounted to 4.8 ± 0.26 under setting [1] and 4.85 ± 0.11 under setting [2].
In the same order, the values of PSTYGGGLSVSSRFSSGGACGLGG [KRT16] are 3.21 ± 0.21 and 3.44 ± 0.2.
